Experimental data: US20260274913A1 (Amgen, published 2026)

T1: cyno TREM-1 (cynomolgus monkey, UniProt A0A2K5VHG8 21-233)
T1 sequence: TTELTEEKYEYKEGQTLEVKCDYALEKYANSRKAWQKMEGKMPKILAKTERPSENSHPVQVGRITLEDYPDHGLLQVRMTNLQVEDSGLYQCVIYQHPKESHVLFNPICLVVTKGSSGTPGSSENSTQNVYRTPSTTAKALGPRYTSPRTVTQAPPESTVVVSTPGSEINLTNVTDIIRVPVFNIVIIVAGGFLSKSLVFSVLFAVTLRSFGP

T2: cyno TREM-1-His protein (cynomolgus monkey, UniProt A0A2K5VHG8 21-204)
T2 construct: extracellular domain; Soluble analyte of the Octet assay; not shown: His tag
T2 sequence: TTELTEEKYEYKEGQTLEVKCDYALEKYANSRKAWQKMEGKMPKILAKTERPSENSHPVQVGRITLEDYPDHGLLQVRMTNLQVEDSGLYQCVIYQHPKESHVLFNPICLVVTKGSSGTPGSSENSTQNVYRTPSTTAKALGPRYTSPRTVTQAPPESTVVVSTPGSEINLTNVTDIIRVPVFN


Experiments:
cyno TREM-1 = target: T1, cyno TREM-1; experiment: cell-based or functional assay
cyno TREM-1-His protein = target: T2, cyno TREM-1-His protein; experiment: BLI (Octet HTX), antibody captured on anti-human Fc sensor, cyno TREM-1-His as analyte, 1:1 model
Procedure: Briefly, TREM-1 hybridoma supernatants normalized to 10 μg/mL in DMEM null media were prepared by diluting 1:10 in OCTET® assay buffer (10 mM Tris, 0.1% Triton X-100, 150 mM NaCl, 1 mM CaCl₂), 0.1 mg/mL BSA, at pH 7.6) to a final test concentration of 1 μg/mL. Amine reactive second-generation AR2G Biosensors (Molecular Devices) were pre-incubated in 200 μL nanopore water for a minimum of 10 minutes at room temperature before use. The AR2G Biosensors were then activated for 5 minutes in a solution of 20 mM EDC (1-Ethyl-3-[3-dimethylaminopropyl]carbodiimide hydrochloride) (ForteBio) pre-mixed with 10 mM NHS (N-hydroxysulfosuccinimide) (ForteBio) in nanopore water. An in-house generated mouse anti-human Fc monoclonal antibody was coupled to the AR2G Biosensors at 10 μg/mL in 10 mM sodium acetate buffer at pH 5 for 5 minutes, quenched with 1M ethanolamine at pH 8.5 for 5 minutes, and then used to capture antibody from solution. The TREM-1 test antibodies were loaded onto the Biosensors for 5 minutes, and baseline measurements were taken for 1 minute. […] The association of recombinant human TREM-1 with the antibody-loaded sensor was measured for 5 minutes, followed by dissociation in OCTET® buffer for 10 minutes. Biosensors were then regenerated with 10 mM glycine at pH 1.7, reloaded with the same TREM-1 antibodies on the same sensors for 5 minutes, and the same method was used to measure association and dissociation of cyno TREM-1-His protein. Data was referenced using a 0 nM analyte reference sensor. Kinetic analysis was performed using a 1:1 Langmuir model with mass transfer in Genedata Screener software.

| Ab IC50-Cyno PBMC (Trial 1), TNFα release induced by cyno PGLYRP1/PGN (cyno TREM-1) | Ab IC50-Cyno PBMC (Trial 2), TNFα release induced by cyno PGLYRP1/PGN (cyno TREM-1) | Kd (cyno TREM-1-His protein) | Binder |
| --- | --- | --- | --- |
| 0.154 nM | 0.0284 nM | 1.28 nM | 57C10 (antibody, V domains shown) VH: QVQLVQSGAEVKKPGASVKVSCKASGYTFTRYDINWVRQATGQGLEWMGWLNPNSGNTGQTQKFRGRVTMTRNTSINTAYMELSSLRSEDTAVYYCARGGYTSAWRWYFDLWGRGTLVTVSS VL: DIQMTQSPSSLSASVGDRVTITCQASQDINNHLNWYQQKPGKAPKLLIYDVSNLETGVPSSFSGSGCGTDFTFTISSLQPEDIATYFCQQYDKLPLTFGGGTKVEIE |
| 3.77 nM |  | 5.7 nM | 30H2 (antibody, V domains shown, also called 19330) VH: EVQVLESGGGLVQPGESLRLSCTASGFTFNAYAMSWVRQAPGKGLEWVSTISGSGSTTYYADSVKGRFTISRDNSKNTLDLQMNSLRAADTAVYYCAKVAGSNFFFDHWGQGTLVTVSS VL: EIVMTQSPATLSVSPGERATLSCRASQSINSNLAWYQQKPGQAPRLLIYGAYTRATGIPDRFSGSGSGTEFTLTISSLQSEDFAVYYCQEFIMWPPWTFGLGTQVEIK |
| 0.0469 nM | 0.0174 nM | 1.27 nM | 61B12 (antibody, V domains shown) VH: QVQLVQSGAEVTKPGASVKVSCKASGYTFTRYDINWVRQATGQGLEWMGWMNPNSGNSGSVQKFRGRVTMTRNTSITTVYMELSSLRSDDTAVYYCARGGISSSWHWAFDIWGQGTMVTVSS VL: DIQMTQSPSSLSASVGDRVTITCQASQDINNHLNWYQQKPGKAPKLLIYGAYTLETGVPSRFSGSGSGTDFTFTISSLQPEDIATYYCQQYDKLPLTFGGGTKVEIK |
| 0.0226 nM | 0.0161 nM | 0.856 nM | 63F8 (antibody, V domains shown) VH: QVQLVQSGAEVKKPGASVKVSCKASGYTFTSYDINWVRQATGQGLEWMGRMNPKSGNAGYVQNFRGRVTMTRNTSISTAYMELSSLRSEDTAVYYCARGGRTSIWSFVFDYWGQGTLVTVSS VL: DIQMTQSPSSLSASVGDRVTITCQASQDISKHLNWYQQKPGKAPKLLIYDTSNLETGVPSRFSGSGSGTDFTFTISSLQPEDIATYNCQQYDKLPLTFGGGTKVEIK |
| 6.94 nM | 0.78 nM | 0.68 nM | 64D7 (antibody, V domains shown) VH: QVQLVQSGAEVKKPGASVKVSCKASGYTFTSYDINWVRQATGQGLEWMGWMNPNRGNTGYVKKFQGRVTMTRNTSISTAYMELSSLRSEDTAVYYCARRRAVYRSSWEWYFDLWGRGTLVTVSS VL: DTQMTQSPSSLSASEGDRVTITCQASQDIFNDLNWYQEKPGKAPKLLIYHASNLETGVPSRFSGSGSGTDYTFTISSLQPEDIATYYCQQYGNLPLTFGGGTKVEIK |
| 0.0951 nM | 0.0097 nM |  | 46H7 (antibody, V domains shown) VH: EVQLLESGGGMVQPGGSLRLSCAVSGFTFSRYAMSWVRQAPGKGLEWVSEMRGSSGSTYYADSVKGRFTISRDNSKNTLYLQMNSLRVEDTAIYYCAKEFSSNSLFDYWGQGTLVTVSS VL: EIVMTQSPATLSVSPGERATLSCRASQSVNSNLAWYQQKPGRAPRLLIYGASTRATGIPARFSGSGSGTEFTLTISSLQSEDFAVYYCQQFYNWPPWTFGQGTKVEIK |
| 0.732 nM | 0.266 nM | 1.87 nM | 49A2 (antibody, V domains shown, also called 19333) VH: EVQLVESGGGLVQPGGSLRLSCAASGFTFSSNWMSWVRQAPGKGLDWMASMKQDGSEIYYVDSVKGRFTISRDNAKNSLHLQMNSLRAEDTAVYYCVRGGWRFESWGQGALVTVSS VL: EIVMTQSPATLSVSPGERATLSCRASQSVSSNLAWYQQKSGQAPRLLIYGASIRATGIPARVSGSGSGTEFTFTISSLQSEDFAVYYCQQYKNWPLTLGGGTKVEIK |
|  |  | 4.97 nM | 34D1 (antibody, V domains shown) VH: QVQLVQSGAEVKKPGASVKVSCKASGYTFTRYDINWVRQATGQGLEWMGWMNPNSGNSGSVQKFRGRVTMTRNTSIHIAYMELSSLRSEDTAVYYCARGGYTSSWRWYFDLWGRGTLVTVSS VL: DIQMTQSPSSLSASVGDRVNITCQASQDIRKHLNWYQQKPGKAPNLLIYDAANLETGVPSRFSGSGSGTAFTFTISSLQPEDIATYYCQHYANLPITFGQGTRLEIK |

The next lines start with the binder.

| Binder | Ab IC50-Cyno PBMC (Trial 1), TNFα release induced by cyno PGLYRP1/PGN (cyno TREM-1) | Ab IC50-Cyno PBMC (Trial 2), TNFα release induced by cyno PGLYRP1/PGN (cyno TREM-1) | Kd (cyno TREM-1-His protein) |
| --- | --- | --- | --- |
| 61G5 (antibody, V domains shown) VH: QVQLVQSGAEVKKPGASVKVSCKASGYTFTSYDINWVRQATGQGLEWMGWMNPNSGNSGSVKKFRDRVTMTRNTSISTAYMELSSLRSEDTAVYYCVRLIGYSSAWKWSFQHWGQGTLVTVSS VL: DIQMTQSPSSLSASVGDRVTITCQASRDISKYLNWYQQKPGKAPKLQIYDASNLETGVPSRFSGSGSGTDFTFTISSLQPEDIATYYCQHYDNIPITFGQGTRLEIK |  | 2.34 nM | 1.31 nM |
| 44A5 (antibody, V domains shown) VH: EVQLLESGGGLVQPGGSLRLSCAASGFTFSTYAMNWVRQAPGKGLEWVSTVSGSGRPTYYADSVKGRFTISRDNSKNTLYLQMNSLRAEDTAVYYCAKAYYSNYLFDYWGQGTLVTVSS VL: EIVMTQSPAILSVSPGERATLSCRASQSVSSNLAWYQQKPGQAPRLLIYGASTRATGVPARFSGGGSGTDFTLTISSLQSEDFAVYYCQHCKTWPPLTFGGGTKVDLK | 0.0579 nM | 0.0091 nM | 2.02 nM |
| 66B8 (antibody, V domains shown) VH: QVQLVQSGAEVKKPGASVKVSCKASGYTFTGYYMHWVRQAPGQGLEWMGWFKPNSGVTNYAQKFQGRVTMSRDTSISTAYMELSSLRSDDTAVYYCARAGYSTSWKDWFDPWGQGTLVTVSS VL: DIQMTQFPSSVSASVGDRVTITCRASQGISRWLAWYQQKQGKAPKLLIYMVSSLQSGVPSRFSGSGSGTDFTLTISSLQPEDFATYYCQQSHNFPITFGQGTRLDIK | 0.114 nM | 0.0232 nM | 1.64 nM |
| 50A12 (antibody, V domains shown) VH: EVQLVESGGGLVQPGGSLRLSCAASGFTFSSYWMSWVRQAPGKGLEWVANIKQDGSEEYYVDSVKGRFTISRDNAKNSLFLQMNSLRAEDTAVYYCARDYGDSFDYWGQGTLVTVSS VL: DIQMTQSPSSVSASVGDRVTITCRASQGIRKWLAWYQQKPGRAPKLLIYAASRLQSGVPSRFSGSGSGTDFTLTISSLRPEDFATYYCLQAHGFPWTFGQGTKVEIK | 2 nM |  | 6.42 nM |
| 57F5 (antibody, V domains shown) VH: EVQLLESGGGLVQPGGSLRLSCAASGFTFSSYAMTWVRQAPGRGLQWVSTISGSGSNTYYADSVKGRFTISRDNSKNTLYLQMSSLRAEDTAVYYCAKEGGSNRYFHHWGQGTLVTISS VL: DIQMTQSPSSLSASVGDRVTITCRASQSISSNLNWYQQKPGKAPKLLISAASNLQSGVPSRFSGSESGTDFTLTISSLQSEDFATYYCQQSDSLPLTFGGGTKVEIN |  |  | < 0.29 nM |
| 3E12 (antibody, V domains shown) VH: QVQLVQSGAEVKKPGASVKVSCKASGYTFNGYYIHWVRQAPGQGLEWMGWLNPNSGGANYAQKFQGWVTMTRDTSISTAYMELSRLTSDDTAVYYCARDQRKTTVTPFEYWGQGTLVTVSS VL: SYELTQPPSVSVSPGQTASITCSGDKLGERNVCWYQLKPGQSPILVIYQDNKRPSGIPERFSGSKSGNTAILTISGTQAMDEADYYCQAWDRNVVFGGGTKLTVL |  |  | 1.8 nM |
